The term Kd denotes the equilibrium constant for the complex coming apart.

Among the targets are HLA-A*11:01; HLA-A*68:01; HLA-A*03:01; HLA-A*33:01; HLA-A*31:01.
Holding throughout (assay): IEDB peptide-MHC binding, purified MHC/competitive/radioactivity; filed as Kd, often an IC50 or EC50 that approximates it; ≥ and ≤ were set here for values at or beyond the usual limits of such assays
Setting [1] is: source organism: SARS coronavirus Tor2.
Where [2] appears, read: source organism: Vaccinia virus WR.
Where [3] appears, read: source organism: Lassa virus Josiah.

For AVLDMCAALK, the Kd with HLA-A*11:01 (setting [1]) is 6.06 nM; with HLA-A*68:01 (setting [1]) it was 117 nM; with HLA-A*03:01 (setting [1]) it was 12.9 nM; with HLA-A*33:01 (setting [1]), 756 nM; in the assay with HLA-A*31:01 (setting [1]), 80.4 nM.

As for DAKNDDWKK, the Kd in the assay with HLA-A*11:01 (setting [2]) is 3100 nM; with HLA-A*68:01 (setting [2]), 104 nM; with HLA-A*03:01 (setting [2]), 8230 nM; in the assay with HLA-A*33:01 (setting [2]), 2830 nM; in the assay with HLA-A*31:01 (setting [2]) it was no less than 36700 nM.

As for DFDNLIGVR, the Kd in the assay with HLA-A*11:01 (setting [2]) was no less than 77900 nM; in the assay with HLA-A*68:01 (setting [2]), 10700 nM; with HLA-A*03:01 (setting [2]) it was no less than 78000 nM; with HLA-A*33:01 (setting [2]) it was 87.1 nM; with HLA-A*31:01 (setting [2]), 8030 nM.

DSFLRKIGDK: the Kd was 11700 nM with HLA-A*11:01 (setting [2]); 6270 nM with HLA-A*68:01 (setting [2]); no less than 59100 nM with HLA-A*03:01 (setting [2]); 1970 nM in the assay with HLA-A*33:01 (setting [2]); 3560 nM with HLA-A*31:01 (setting [2]).

Turning to DTSNNIAEY, the Kd is no less than 5000 nM with HLA-A*11:01 (setting [2]); 2.74 nM with HLA-A*68:01 (setting [2]); no less than 78000 nM with HLA-A*03:01 (setting [2]); 7610 nM with HLA-A*33:01 (setting [2]); no less than 35600 nM in the assay with HLA-A*31:01 (setting [2]).

Turning to EALEYLSELK, the Kd with HLA-A*11:01 (setting [2]) was found to be 225 nM; with HLA-A*68:01 (setting [2]), 105 nM; with HLA-A*03:01 (setting [2]), 461 nM; with HLA-A*33:01 (setting [2]), 5620 nM; in the assay with HLA-A*31:01 (setting [2]), 17900 nM.

Take ELYDTSPTK: the Kd with HLA-A*11:01 (setting [2]) was 90.2 nM; with HLA-A*68:01 (setting [2]), 4.11 nM; in the assay with HLA-A*03:01 (setting [2]), 10.5 nM; with HLA-A*33:01 (setting [2]) it was no less than 43500 nM; in the assay with HLA-A*31:01 (setting [2]), no less than 77900 nM.

Consider EQQQSFMPK, for which the Kd with HLA-A*11:01 (setting [2]) amounted to 11.3 nM; with HLA-A*68:01 (setting [2]) it was 131 nM; with HLA-A*03:01 (setting [2]), 2120 nM; with HLA-A*33:01 (setting [2]) it was 5470 nM; with HLA-A*31:01 (setting [2]), 5260 nM.

For EVGSIRCVKY, the Kd with HLA-A*11:01 (setting [2]) is no less than 69800 nM; with HLA-A*68:01 (setting [2]), 1510 nM; in the assay with HLA-A*03:01 (setting [2]), no less than 70100 nM; with HLA-A*33:01 (setting [2]) it was no less than 47800 nM; with HLA-A*31:01 (setting [2]), no less than 47000 nM.

Consider FSLESDSIK, for which the Kd with HLA-A*11:01 (setting [2]) came to 565 nM; with HLA-A*68:01 (setting [2]) it was 187 nM; with HLA-A*03:01 (setting [2]) it was 1570 nM; in the assay with HLA-A*33:01 (setting [2]), 2220 nM; with HLA-A*31:01 (setting [2]), 960 nM.

FSTSAADIKR: the Kd was 247 nM in the assay with HLA-A*11:01 (setting [2]); 16.5 nM with HLA-A*68:01 (setting [2]); 18000 nM in the assay with HLA-A*03:01 (setting [2]); no less than 22500 nM with HLA-A*33:01 (setting [2]); 11100 nM with HLA-A*31:01 (setting [2]).

Consider GANYLGKPK, for which the Kd with HLA-A*11:01 (setting [1]) was 1080 nM; in the assay with HLA-A*68:01 (setting [1]), 3450 nM; with HLA-A*03:01 (setting [1]), 510 nM; with HLA-A*33:01 (setting [1]), no less than 77700 nM; with HLA-A*31:01 (setting [1]), 1480 nM.

For the sequence GVVRVWDVK, the Kd with HLA-A*11:01 (setting [3]) was 11.1 nM; in the assay with HLA-A*68:01 (setting [3]) it was 129 nM; in the assay with HLA-A*03:01 (setting [3]), 5790 nM; with HLA-A*33:01 (setting [3]), no less than 24200 nM; with HLA-A*31:01 (setting [3]) it was no less than 45000 nM.

Turning to HIASKINNNR, the Kd with HLA-A*11:01 (setting [2]) came out at 4030 nM; with HLA-A*68:01 (setting [2]), 18.8 nM; with HLA-A*03:01 (setting [2]), 1960 nM; in the assay with HLA-A*33:01 (setting [2]), 5950 nM; in the assay with HLA-A*31:01 (setting [2]), 959 nM.

Turning to HIVCSKTVK, the Kd with HLA-A*11:01 (setting [2]) was 1590 nM; with HLA-A*68:01 (setting [2]), 118 nM; with HLA-A*03:01 (setting [2]), 291 nM; with HLA-A*33:01 (setting [2]) it was no less than 32800 nM; in the assay with HLA-A*31:01 (setting [2]), 623 nM.

In the case of IILSKIPYLR, the Kd came out at 40.7 nM with HLA-A*11:01 (setting [2]); 0.777 nM with HLA-A*68:01 (setting [2]); 40.9 nM in the assay with HLA-A*03:01 (setting [2]); 251 nM with HLA-A*33:01 (setting [2]); 4.77 nM in the assay with HLA-A*31:01 (setting [2]).

IINDKGKQY: the Kd with HLA-A*11:01 (setting [2]) was 8380 nM; with HLA-A*68:01 (setting [2]), no less than 77700 nM; in the assay with HLA-A*03:01 (setting [2]), 1940 nM; in the assay with HLA-A*33:01 (setting [2]) it was no less than 77700 nM; in the assay with HLA-A*31:01 (setting [2]), no less than 77900 nM.

For the sequence IINFTISMRY, the Kd is 1.71 nM with HLA-A*11:01 (setting [2]); 690 nM with HLA-A*68:01 (setting [2]); 35.3 nM with HLA-A*03:01 (setting [2]); 5210 nM with HLA-A*33:01 (setting [2]); 1420 nM with HLA-A*31:01 (setting [2]).

Consider IISEEYLSK, for which the Kd is 27 nM with HLA-A*11:01 (setting [2]); 7850 nM with HLA-A*68:01 (setting [2]); 103 nM in the assay with HLA-A*03:01 (setting [2]); no less than 59300 nM with HLA-A*33:01 (setting [2]); 10100 nM with HLA-A*31:01 (setting [2]).

For the sequence ILKKLSSIK, the Kd worked out at 1090 nM with HLA-A*11:01 (setting [2]); 4810 nM in the assay with HLA-A*68:01 (setting [2]); 4.69 nM with HLA-A*03:01 (setting [2]); 1560 nM with HLA-A*33:01 (setting [2]); 3180 nM with HLA-A*31:01 (setting [2]).

Turning to IQFMMSRRR, the Kd in the assay with HLA-A*11:01 (setting [1]) amounted to 369 nM; with HLA-A*68:01 (setting [1]), 1490 nM; with HLA-A*03:01 (setting [1]) it was 353 nM; in the assay with HLA-A*33:01 (setting [1]), 1440 nM; in the assay with HLA-A*31:01 (setting [1]), 4.4 nM.

With IQTSVNTVVR, the Kd was 14200 nM with HLA-A*11:01 (setting [2]); 1430 nM with HLA-A*68:01 (setting [2]); no less than 39700 nM with HLA-A*03:01 (setting [2]); no less than 29900 nM with HLA-A*33:01 (setting [2]); 363 nM with HLA-A*31:01 (setting [2]).

Take ITDMINASLK: the Kd in the assay with HLA-A*11:01 (setting [2]) was 81.2 nM; with HLA-A*68:01 (setting [2]), 76.3 nM; in the assay with HLA-A*03:01 (setting [2]), 151 nM; in the assay with HLA-A*33:01 (setting [2]) it was no less than 27300 nM; with HLA-A*31:01 (setting [2]), 10600 nM.

For the origin of these results see the Immune Epitope Database (IEDB).
